From US20170015758A1 come the findings set out here.

One assay concerns the target PD1 (human) (UniProt Q15116). Put plainly: cell-based or functional assay.
The target in the next assay is PD-L1 (human) (UniProt Q9NZQ7). Put plainly: cell-based or functional assay.
UniProt Q9NZQ7, sequence (Q9NZQ7 19-290): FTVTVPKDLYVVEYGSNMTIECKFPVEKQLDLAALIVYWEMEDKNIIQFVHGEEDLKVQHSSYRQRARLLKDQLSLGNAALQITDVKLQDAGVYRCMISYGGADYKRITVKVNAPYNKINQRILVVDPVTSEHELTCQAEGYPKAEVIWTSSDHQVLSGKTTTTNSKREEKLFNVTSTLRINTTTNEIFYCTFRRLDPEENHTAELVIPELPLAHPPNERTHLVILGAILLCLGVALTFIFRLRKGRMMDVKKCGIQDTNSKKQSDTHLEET

UniProt Q15116, sequence (Q15116 25-288): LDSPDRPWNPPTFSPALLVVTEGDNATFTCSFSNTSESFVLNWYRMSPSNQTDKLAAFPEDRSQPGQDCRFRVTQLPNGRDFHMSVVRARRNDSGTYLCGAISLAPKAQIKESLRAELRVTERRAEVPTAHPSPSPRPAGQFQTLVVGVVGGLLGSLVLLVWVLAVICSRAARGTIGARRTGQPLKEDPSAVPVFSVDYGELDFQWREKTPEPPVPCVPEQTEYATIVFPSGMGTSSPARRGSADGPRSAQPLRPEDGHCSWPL

As for Anti-PD1 (clone J116) (antibody), in the assay with PD1 (human), the MEDI-565-mediated cytolysis of SW1463 with fresh T cells in the presence of anti-PD1 was 66.3%; the tumor killing in second round, T cells previously incubated with MEDI-565 and tumor, anti-PD1 added worked out at 37.1%; the tumor-specific cytolytic activity, fresh T cells, PD1 inhibition alone was determined as 49.9%.

For the substance Anti-PD-L1 (clone MIH1) (antibody), the tumor-specific cytolytic activity, fresh T cells, PD-L1 inhibition alone with PD-L1 (human) was determined as 49.9%.
